In assay [1] the target is mEGF34+NRR-L1597H-FLAG-TEV-Fc (mouse) (UniProt Q01705). The assay is described as follows: ELISA, target coated on the plate at 1 ug/ml, IgG titrated in 3-fold steps, detected with peroxidase anti-human Fab; A630. A general note: ELISA stands for enzyme-linked immunosorbent assay.
Assay [2] addresses T1, hFLAG-EGF34+NRR-His6 (101V), the human Notch1 NRR immunogen (Notch1 V1307-Q1733) (human, UniProt P46531 1307-1733).
T1 construct: also called hNotch1 NRR; human NRR1
The assay is described as follows: SPR (BIAcore-3000), IgG captured by anti-human IgG, NRR1-ECD injected 3.9-500 nM, 25 C. The method, then:
(§1) To further characterize the binding affinity and binding kinetics of the anti-Notch1 NRR Mabs, surface plasmon resonance (SRP) measurement with a BIAcore™-3000 was used (BIAcore, Inc., Piscataway, N.J.). Briefly, carboxymethylated dextran biosensor chips (CM5, BIAcore Inc.) were activated with N-ethyl-N′-(3-dimethylaminopropyl)-carbodiimide hydrochloride (EDC) and N-hydroxysuccinimide (NHS) according to the supplier's instructions. Rabbit anti human antibody (Pierce) was diluted with 100 mM sodium acetate, pH 4.8, into 20 μg/ml before injection at a flow rate of 5 μl/minute to achieve approximately 3000 response units (RU) of coupled antibody. Next, 1M ethanolamine was injected to block unreacted groups. Anti-NRR1 mab (formatted as a full-length IgG) was captured by rabbit anti-human IgG coated on the chips to achieve approximately 200 response units (RU). For kinetics measurements, two-fold serial dilutions of human NRR1-ECD or murine NRR1-ECD proteins (3.9 nM to 500 nM) were injected in PBT buffer (PBS with 0.05% Tween 20) at 25° C. with a flow rate of 30 μl/min. Association rates (kₒₙ) and dissociation rates (koff) were calculated using a simple one-to-one Langmuir binding model (BIAcore Evaluation Software version 3.2). The equilibrium dissociation constant (KD) was calculated as the ratio koff/kₒₙ.
In general terms: Surface plasmon resonance follows binding to a sensor surface in real time, without labels.

In assay [3] the target is T2, mFLAG-EGF34+NRR-His6, the mouse Notch1 NRR immunogen (Notch1 V1307-Q1723) (mouse, UniProt Q01705 1307-1723).
T2 construct: the rest carries an N-terminal FLAG tag and a C-terminal His tag; also called mNotch1 NRR; murine NRR1
T2 sequence (Q01705 other isoform, or with tags, fused parts or gaps): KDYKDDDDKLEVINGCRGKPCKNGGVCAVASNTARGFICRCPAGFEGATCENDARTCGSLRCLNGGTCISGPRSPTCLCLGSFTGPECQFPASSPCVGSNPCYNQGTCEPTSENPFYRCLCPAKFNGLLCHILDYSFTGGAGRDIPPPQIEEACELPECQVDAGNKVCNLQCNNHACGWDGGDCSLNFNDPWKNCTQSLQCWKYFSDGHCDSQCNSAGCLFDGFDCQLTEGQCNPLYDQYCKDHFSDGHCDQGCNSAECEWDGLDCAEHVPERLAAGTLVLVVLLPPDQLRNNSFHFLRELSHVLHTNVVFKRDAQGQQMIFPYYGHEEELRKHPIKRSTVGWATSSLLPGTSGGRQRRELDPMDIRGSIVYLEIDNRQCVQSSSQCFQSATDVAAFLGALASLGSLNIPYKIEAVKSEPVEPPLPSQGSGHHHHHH
The assay is described as above. The method, then: as §1

The target in assay [4] is T1, hFLAG-EGF34+NRR-His6 (101V), the human …. The assay is described as follows: ELISA, target coated on the plate at 1 ug/ml, IgG titrated in 3-fold steps, detected with peroxidase anti-human Fab; A630. The method, then:
(§2) 1 μg/ml of proteins in PBS, pH 7.4, were coated on ELISA plates (Nunc Maxisorp) at 4° C. overnight. Plates were blocked with Casein blocker in PBS (phosphate buffered saline; Pierce) for one hour at room temperature. Serial 3-fold dilutions of anti Notch1 NRR IgGs or irrelevant IgG in PBST buffer (PBT buffer (PBS+0.05% (v/v) Tween 20) with 0.5% (w/v) BSA) were added to the plates and incubated for one hour at room temperature. The plates were then washed with PBST and bound antibodies were detected with peroxidase-conjugated goat anti human Fab specific IgG (Sigma). TMB substrate (3,3′,5,5′-etramethylbenzidine) was used and absorbance at 650 nm was read using a standard ELISA plate reader. Absorbance was plotted against concentrations of IgGs using KaleidaGraph (Synergy Software).

The next assay addresses T3, hFLAG-NRR-His6 (102V) (human, UniProt P46531 1447-1733).
T3 construct: no EGF-like repeats; not shown: FLAG tag; thrombin cleavage site and HIS tag
Described as above. The method, then: as §2

In assay [5] the target is T2, mFLAG-EGF34+NRR-His6, the mouse Notch1 …. Described as above. The method, then: as §2
Assay [6] addresses T1, hFLAG-EGF34+NRR-His6 (101V), the human …. The assay is described as follows: competitive phage-binding ELISA: phage-displayed Fab, soluble NRR1 titrated against coated NRR1. The method, then:
(§3) To identify the phage antibodies that bound to both human and murine Notch1 NRR, all unique clones were tested for binding to human and murine Notch1 by ELISA. The affinities of phage antibodies were ranked using single spot competition ELISA as described below in this Example. The phage antibody IC50 values were further determined using competitive phage-binding ELISA essentially described in Lee, C. V., et al. (2004) J Mol Biol 340, 1073-93. Briefly, NUNC 96 well Maxisorp immunoplates were coated overnight at 4° C. with 1 μg/ml human NRR1 or murine NRR1, and were blocked for 1 hour at room temperature with blocking buffer PBST (PBS and 1% BSA and 0.05% Tween 20). Phage was mixed with serial dilution of human or murine NRR1 at room temperature for 1 hour before the mixture was added to human and murine NRR1 coated plate. Bound phage were detected with anti-M13 HRP conjugates, developed with TMB substrate for approximately 5 minutes, quenched with 1M H₃PO₄, and read spectrophotometrically at 450 nm.

Assay [7] concerns the target T2, mFLAG-EGF34+NRR-His6, the mouse Notch1 …. Described as above. The method, then: as §3

Here are results for 6 molecules from US20090081238A1 (Genentech, published 2009).

T1 sequence (P46531 other isoform, or with tags, fused parts or gaps limits assumed): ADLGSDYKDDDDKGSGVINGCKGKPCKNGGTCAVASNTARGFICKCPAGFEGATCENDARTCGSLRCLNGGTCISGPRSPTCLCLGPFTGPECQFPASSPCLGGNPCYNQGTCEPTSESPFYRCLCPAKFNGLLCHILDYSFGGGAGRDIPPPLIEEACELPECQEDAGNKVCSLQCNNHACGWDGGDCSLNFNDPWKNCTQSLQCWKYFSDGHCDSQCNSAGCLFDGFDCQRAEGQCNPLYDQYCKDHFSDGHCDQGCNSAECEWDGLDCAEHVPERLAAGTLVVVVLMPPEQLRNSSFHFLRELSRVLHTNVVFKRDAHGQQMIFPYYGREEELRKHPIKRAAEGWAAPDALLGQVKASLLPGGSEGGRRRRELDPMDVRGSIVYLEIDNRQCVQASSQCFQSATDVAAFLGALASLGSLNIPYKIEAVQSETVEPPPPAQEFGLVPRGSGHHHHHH
mEGF34+NRR-L1597H-FLAG-TEV-Fc (mouse), sequence (Q01705 1307-1723, stated change not applied): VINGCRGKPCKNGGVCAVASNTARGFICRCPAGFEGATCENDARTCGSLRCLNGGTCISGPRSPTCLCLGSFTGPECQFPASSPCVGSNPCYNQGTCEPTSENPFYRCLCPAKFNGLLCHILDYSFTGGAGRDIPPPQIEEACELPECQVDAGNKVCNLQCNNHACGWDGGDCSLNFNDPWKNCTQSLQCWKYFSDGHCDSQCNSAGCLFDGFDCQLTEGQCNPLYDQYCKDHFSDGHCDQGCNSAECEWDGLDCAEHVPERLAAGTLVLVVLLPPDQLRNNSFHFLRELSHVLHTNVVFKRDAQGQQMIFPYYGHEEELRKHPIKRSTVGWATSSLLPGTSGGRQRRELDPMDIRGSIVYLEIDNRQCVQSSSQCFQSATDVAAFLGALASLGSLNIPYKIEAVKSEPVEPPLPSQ
T3 sequence (P46531 1447-1733): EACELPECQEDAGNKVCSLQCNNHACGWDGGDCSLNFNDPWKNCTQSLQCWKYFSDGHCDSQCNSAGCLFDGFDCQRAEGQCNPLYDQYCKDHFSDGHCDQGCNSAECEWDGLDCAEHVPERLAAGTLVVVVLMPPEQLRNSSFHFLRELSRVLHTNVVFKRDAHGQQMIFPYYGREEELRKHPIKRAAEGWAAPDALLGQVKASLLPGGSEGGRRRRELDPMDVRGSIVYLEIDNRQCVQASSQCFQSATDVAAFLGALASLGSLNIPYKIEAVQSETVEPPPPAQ

B1: Antibody A-1 (antibody, V domains shown)
VH: EVQLVESGGGLVQPGGSLRLSCAASGFTFSSYWIHWVRQAPGKGLEWVARINPPNGSAHYADSVKGRFTISADTSKNTAYLQMNSLRAEDTAVYYCARGSGFRWVMDYWGQGTLVTVSS
VL: DIQMTQSPSSLSASVGDRVTITCRASQDVSTAVAWYQQKPDGTVKLLIYSASFLYSGVPSRFSGSGSGTDFTLTISSLQPEDFATYYCQQSYTTPATFGQGTKVEIKR
notes: also called Antibody A-1-hIgG1
Regarding B1, the EC50 (read off the curve) (commonly the concentration at which the effect is half-maximal) is 0.06 µg/mL in assay [1], roughly 0.2 µg/mL in assay [4], roughly 0.1 µg/mL in the assay with hFLAG-NRR-His6 (102V) and roughly 0.07 µg/mL in assay [5]. Besides, the values for the dissociation constant Kd in assay [2] and in assay [3] were 3.43 nM and 3.88 nM, respectively. For the same molecule, the off-rate constant (koff) – broadly, the first-order rate constant of dissociation – in assay [2] is 0.00023 s⁻¹; in assay [3] it was 0.00033 s⁻¹. Moreover, the figures for the kon in assay [2] and in assay [3] were 67000 M⁻¹ s⁻¹ and 85000 M⁻¹ s⁻¹, respectively.

B2: Antibody A-3 (antibody, V domains shown)
VH: EVQLVESGGGLVQPGGSLRLSCAASGFTFSSYWIHWVRQAPGKGLEWVARINPANGSTRYADSVKGRFTISADTSKNTAYLQMNSLRAEDTAVYYCARGSGFRWVMDYWGQGTLVTVSS
VL: DIQMTQSPSSLSASVGDRVTITCRASQDVSTAVAWYQQKPDGTVKLLIYSASFLYSGVPSRFSGSGSGTDFTLTISSLQPEDFATYYCQQSFSTPATFGQGTKVEIK
For the molecule B2, in assay [2], the Kd (in general, the free concentration of one partner at which half of the binding sites on the other are occupied at equilibrium, for simple one-to-one binding) was 5.88 nM; the off-rate (koff) turned out to be 0.0004 s⁻¹; the association rate constant (kon) (usually the rate constant with which the complex forms) came to 68000 M⁻¹ s⁻¹. In assay [3], this molecule came in with a Kd of 13 nM, a koff of 0.0012 s⁻¹ and a kon of 92000 M⁻¹ s⁻¹.

B3: Antibody A-3 (phage-displayed Fab clone) (Fab, V domains shown)
VH: EVQLVESGGGLVQPGGSLRLSCAASGFTFSSYWIHWVRQAPGKGLEWVARINPANGSTRYADSVKGRFTISADTSKNTAYLQMNSLRAEDTAVYYCARGSGFRWVMDYWGQGTLVTVSS
VL: DIQMTQSPSSLSASVGDRVTITCRASQDVSTAVAWYQQKPDGTVKLLIYSASFLYSGVPSRFSGSGSGTDFTLTISSLQPEDFATYYCQQSFSTPATFGQGTKVEIK
On to B3, for which the IC50 – broadly, the concentration that gives 50% inhibition – was 0.5 nM in assay [6] and 2.5 nM in assay [7].

B4: Antibody A-1 (phage-displayed Fab clone) (Fab, V domains shown)
VH: EVQLVESGGGLVQPGGSLRLSCAASGFTFSSYWIHWVRQAPGKGLEWVARINPPNGSAHYADSVKGRFTISADTSKNTAYLQMNSLRAEDTAVYYCARGSGFRWVMDYWGQGTLVTVSS
VL: DIQMTQSPSSLSASVGDRVTITCRASQDVSTAVAWYQQKPDGTVKLLIYSASFLYSGVPSRFSGSGSGTDFTLTISSLQPEDFATYYCQQSYTTPATFGQGTKVEIKR
Consider B4, for which the concentration for half-maximal inhibition (IC50) turned out to be 0.8 nM in assay [6] and 0.6 nM in assay [7].

B5: Antibody A-2 (antibody, V domains shown)
VH: EVQLVESGGGLVQPGGSLRLSCAASGFTFSSYWIHWVRQAPGKGLEWVARINPPNRSNQYADSVKGRFTISADTSKNTAYLQMNSLRAEDTAVYYCARGSGFRWVMDYWGQGTLVTVSS
VL: DIQMTQSPSSLSASVGDRVTITCRASQDVSTAVAWYQQKPDGTVKLLIYSASFLYSGVPSRFSGSGSGTDFTLTISSLQPEDFATYYCQQFYTTPSTFGQGTKVEIKR
notes: also called Antibody A-2-hIgG1
Regarding B5, the concentration for a half-maximal effect (EC50 (read off the curve)) in assay [1] is 0.04 µg/mL; in assay [4], roughly 0.07 µg/mL; with hFLAG-NRR-His6 (102V), roughly 0.06 µg/mL; in assay [5], roughly 0.05 µg/mL. Also, the figures for the dissociation constant Kd in assay [2] and in assay [3] were 2.53 nM and 3.09 nM, respectively. The koff was 0.00022 s⁻¹ in assay [2] and 0.00034 s⁻¹ in assay [3]. Besides, the values for the kon in assay [2] and in assay [3] were 87000 M⁻¹ s⁻¹ and 110000 M⁻¹ s⁻¹, respectively.

B6: Antibody A-2 (phage-displayed Fab clone) (Fab, V domains shown)
VH: EVQLVESGGGLVQPGGSLRLSCAASGFTFSSYWIHWVRQAPGKGLEWVARINPPNRSNQYADSVKGRFTISADTSKNTAYLQMNSLRAEDTAVYYCARGSGFRWVMDYWGQGTLVTVSS
VL: DIQMTQSPSSLSASVGDRVTITCRASQDVSTAVAWYQQKPDGTVKLLIYSASFLYSGVPSRFSGSGSGTDFTLTISSLQPEDFATYYCQQFYTTPSTFGQGTKVEIKR
B6: the IC50 in assay [6] and in assay [7] was 0.5 nM each time.
